US20230129258A1, “HETEROTANDEM BICYCLIC PEPTIDE COMPLEXES” (BicycleTx Limited, priority 2019, published 2023)
Starred links: 1 amine or outer side, 2 acyl side, 3 side chain; linkers in the order of their positions; H or OH if unused. Positions of bridges follow the written chain, without caps; N, C: chain ends. Non-standard residues stand in square brackets, D forms with d. Chains are numbered I, II in the order given. No end group written: not given here. *: point of attachment. TATA = O=C(CC[*:1])N1CN(C(=O)CC[*:2])CN(C(=O)CC[*:3])C1; Dip = N[C@H](C(=O)O)C(c1ccccc1)c1ccccc1; d1Nal = N[C@H](Cc1cccc2ccccc12)C(=O)O; Hyp = O=C(O)[C@@H]1C[C@@H](O)CN1; hArg = N=C(N)NCCCC[C@H](N)C(=O)O; tBuAla = CC(C)(C)C[C@H](N)C(=O)O; Cba = N[C@@H](CC1CCC1)C(=O)O; dK(PYA) = not defined here; NMeA = CN[C@@H](C)C(=O)O; Nle = CCCC[C@H](N)C(=O)O; Pent4ynoyl = C#CCCC(=O)*; Mpa = O=C(O)CCS

Target: CD137 on Jurkat reporter cells (Promega kit CS196005) (UniProt Q07011)
Assay: cell-based or functional assay

Chain of CD137 on Jurkat reporter cells (Promega kit CS196005) (Q07011 24-255 limits assumed): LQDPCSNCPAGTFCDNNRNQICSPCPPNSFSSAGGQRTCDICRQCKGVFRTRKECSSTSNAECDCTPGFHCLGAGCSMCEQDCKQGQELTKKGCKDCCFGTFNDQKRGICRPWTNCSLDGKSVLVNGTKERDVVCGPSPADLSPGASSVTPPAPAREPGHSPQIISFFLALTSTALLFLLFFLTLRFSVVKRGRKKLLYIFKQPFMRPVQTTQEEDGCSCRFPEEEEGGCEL

Row | Fold Improvement over BCY9173, EC50, PC3 | Fold Improvement over Emax (BCY9173), PC3 | EC50 (nM), PC3 co-culture | Emax (fold induction over background), PC3 (fold over background) | Binder
1 | 1.1 fold | 1.9 fold |  |  | BCY12724 (linker I:4-I:11-I:18, II:1-II:8-II:15 via TATA; not fully specified (bridges); reading uncertain; also: two CD137 bicycles per complex (EphA2:CD137 1:2)) peptide 1: A[hArg]DC[Hyp]LVNPLCLHP[dD]W[hArg]C peptide 2: Ac-C[tBuAla]PE[dK(PYA)]PYCFADPY[Nle]C
2 |  |  | 0.09 nM | 42.5 | BCY13050 (linker I:4-I:11-I:18, II:1-II:8-II:15 via TATA; not fully specified (N-terminus, bridges); also: linker joins chain 1 to two chain 2 copies via PYA triazoles) peptide 1: A[hArg]DC[Hyp][Cba]VNPLCLHP[dD]W[hArg]C peptide 2: Ac-C[tBuAla]PE[dK](Pent4ynoyl)PYCFADPY[Nle]CA
3 |  |  | 0.21 nM | 37 | BCY13051 (linker I:4-I:11-I:18, II:1-II:8-II:15 via TATA; not fully specified (N-terminus, bridges); also: linker joins chain 1 to two chain 2 copies via PYA triazoles) peptide 1: A[hArg]DC[Hyp][Cba]VNPLCLEP[dD]WTC peptide 2: Ac-C[tBuAla]PE[dK](Pent4ynoyl)PYCFADPY[Nle]CA
4 |  |  | 0.12 nM | 46.7 | BCY13140 (linker I:4-I:11-I:18, II:1-II:8-II:15 via TATA; not fully specified (N-terminus); also: linker joins chain 1 to two chain 2 copies via PYA triazoles) peptide 1: A[hArg]DC[Hyp]LVNPLCLEP[dD]WTC peptide 2: [Mpa][tBuAla]EE[dK](Pent4ynoyl)PYCFADPY[Nle]C
5 | 2.2 fold | 1.8 fold |  |  | BCY12723 (linker I:4-I:11-I:18, II:1-II:8-II:15 via TATA; not fully specified (bridges); reading uncertain; also: two CD137 bicycles per complex (EphA2:CD137 1:2)) peptide 1: A[hArg]DC[Hyp]LVNPLCLHP[dD]W[hArg]C peptide 2: Ac-C[tBuAla]EE[dK(PYA)]PYCFADPY[Nle]C
6 |  |  | 0.16 nM | 43.8 | BCY13139 (linker I:4-I:11-I:18, II:1-II:8-II:15 via TATA; not fully specified (N-terminus); also: linker joins chain 1 to two chain 2 copies via PYA triazoles) peptide 1: A[hArg]DC[Hyp]LVNPLCLHP[dD]W[hArg]C peptide 2: [Mpa][tBuAla]EE[dK](Pent4ynoyl)PYCFADPY[Nle]C
7 |  |  | 0.17 nM | 32.6 | BCY13138 (linker I:4-I:11-I:18, II:1-II:8-II:15 via TATA (inferred); not fully specified (N-terminus); reading uncertain; also: linker joins chain 1 to two chain 2 copies via PYA triazoles) peptide 1: A[hArg]DC[Hyp]LVNPLCLEP[dD]WTC peptide 2: [Mpa][tBuAla]PE[dK(PYA)]PYCFADPY[Nle]C
8 |  |  | 0.07 nM | 36.5 | BCY13054 (linker I:4-I:11-I:18, II:1-II:8-II:15 via TATA; not fully specified (N-terminus, bridges); also: linker joins chain 1 to two chain 2 copies via PYA triazoles) peptide 1: A[hArg]DC[Hyp]LVNPLCL[Dip]P[dD]W[hArg]C peptide 2: Ac-C[tBuAla]PE[dK](Pent4ynoyl)PYCFADPY[Nle]CA
9 |  |  | 0.1 nM | 42.5 | BCY13270 (linker I:4-I:11-I:18, II:1-II:8-II:15 via TATA; not fully specified (N-terminus, bridges); also: linker joins chain 1 to two chain 2 copies via PYA triazoles) peptide 1: A[hArg]DC[Hyp]LVNPLCLHP[d1Nal]W[hArg]C peptide 2: Ac-C[tBuAla]PE[dK](Pent4ynoyl)PYCFADPY[Nle]CA
10 |  |  | 0.21 nM | 32.9 | BCY13052 (linker I:4-I:11-I:18, II:1-II:8-II:15 via TATA (inferred); not fully specified (N-terminus); also: chain 2: linker at dLys(PYA)4 (place not given here by letters), linker N-(acid-PEG3)-N-bis(PEG3-azide) joins N-terminus of chain 1 to dLys(PYA) of chain 2) peptide 1: [dA][hArg]DC[Hyp][Cba]VNPLCLEP[dD]WTC[dA] peptide 2: Ac-C[tBuAla]PE[dK](Pent4ynoyl)PYCFADPY[Nle]CA
11 |  |  | 0.1 nM | 50.5 | BCY13276 (linker I:4-I:11-I:18, II:1-II:8-II:15 via TATA; not fully specified (N-terminus, bridges); also: linker joins chain 1 to two chain 2 copies via PYA triazoles) peptide 1: [NMeA][hArg]DC[Hyp]LVNPLCLEP[dD]WTC peptide 2: Ac-C[tBuAla]PE[dK](Pent4ynoyl)PYCFADPY[Nle]CA
12 |  |  | 0.07 nM | 46.4 | BCY13047 (linker I:4-I:11-I:18, II:1-II:8-II:15 via TATA; not fully specified (N-terminus, bridges); reading uncertain; also: two CD137 bicycles per complex (EphA2:CD137 1:2)) peptide 1: A[hArg]DC[Hyp]LVNPLCL[Dip]P[dD]WTC peptide 2: Ac-C[tBuAla]PE[dK(PYA)]PYCFADPY[Nle]CA
13 |  |  | 0.08 nM | 47.5 | BCY13275 (linker I:4-I:11-I:18, II:1-II:8-II:15 via TATA; not fully specified (N-terminus, bridges); also: linker joins chain 1 to two chain 2 copies via PYA triazoles) peptide 1: [NMeA][hArg]DC[Hyp]LVNPLCLHP[dD]W[hArg]C peptide 2: Ac-C[tBuAla]PE[dK](Pent4ynoyl)PYCFADPY[Nle]CA
